Assay [1] addresses 沙眼衣原体培养物(购自菲鹏生物) (Chlamydia trachomatis). The assay can be described thus: indirect ELISA, plate coated with C. trachomatis culture diluted 100x; antibody at 5 ng/ml.
The target is the same in assay [2]. The assay can be described thus: indirect ELISA, plate coated with C. trachomatis culture diluted 100x; antibody at 10 ng/ml.
Assay [3] shares this target. In words: indirect ELISA, plate coated with C. trachomatis culture diluted 100x; antibody at 20 ng/ml.
The target is the same in assay [4]. The assay can be described thus: indirect ELISA, plate coated with C. trachomatis culture diluted 100x; antibody at 40 ng/ml.
The target is the same in assay [5]. The assay can be described thus: indirect ELISA, plate coated with C. trachomatis culture diluted 100x; antibody at 2.5 ng/ml.
For assay [6] the target is unchanged. In words: indirect ELISA, plate coated with C. trachomatis culture diluted 100x; antibody at 0 ng/ml (blank).

In the case of 对照 (antibody), the OD (450nm, 参考630nm) in assay [1] turned out to be 0.503 OD; in assay [2], 0.825 OD; in assay [3] it was 1.2 OD; in assay [4], 1.79 OD; in assay [5], 0.291 OD; in assay [6] it was 0.025 OD.

B1: Anti-CT-4B11mut1单克隆抗体 (antibody, mouse IgG2a, kappa, V domains shown)
VH: QVQVRQSGPGLVQPSQSLSITCTVSGFSLRSHGVNWVRQSPRKGLEWLGVIWKGGSTEYSAAFMSRLSISKDNSKNQIFFKMNSLQADDTAIYYCAKNNDYGRFDYWGQGTLVTVSA
VL: EVVLTQSPTTLAASPGETITITCRVSSSISSSYLHWYQQKPGFSPKLLIYRTSNLASGVPARFSGSGSGTSYSLTIGTMEADDVATYYCQQGSSLPRTFGGGTTLEIKR
Regarding B1, the OD (450nm, 参考630nm) turned out to be 0.811 OD in assay [1]; 1.14 OD in assay [2]; 1.65 OD in assay [3]; 1.9 OD in assay [4]; 0.462 OD in assay [5]; 0.043 OD in assay [6].

B2: Anti-CT-4B11mut2单克隆抗体 (antibody, part only; not given: light chain, part only)
heavy: QVQVRQSGPGLVQPSQSLSITCTVSGFSLRSHGVNWVRQSPRKGLEWLGVIWKGGSTEYSAAFMSRLSISKDNSKNQIFFKMNSLQADDTAIYYCAKNNDYGRFDYWGQGTLVTVSAAKTTAPSVYPLAPVCGDTTGSSVTLGCLVKGYFPEPVTLTWNSGSLSSGVHTFPAVLQSDLYTLSSSVTVTSSTWPSQSITCNVAHPASSTKVDKKIEPRGPTIKPCPPCKCPAPNLLGGPSVFIFPPKIKDVLMISLSPIVTCVVVDVSEDDPDVQISWFVNNVEVHTAQTQTHREDYNSTLRVVSALPIQHQDWMSGKEFKCKVNNKDLPAPIERTISKPKGSVRAPQVYVLPPPEEEMTKKQVTLTCMVTDFMPEDIYVEWTNNGKTELNYKNTEPVLDSDGSYFMYSKLRVEKKNWVERNSYSCSVVHEGLHNHHTTKSFSRTPGK
Consider B2, for which the OD (450nm, 参考630nm) amounted to 0.959 OD in assay [1]; 1.33 OD in assay [2]; 1.71 OD in assay [3]; 1.92 OD in assay [4]; 0.507 OD in assay [5]; 0.026 OD in assay [6].

These data come from patent CN116854812A.
